According to patent US20180311371A1 (Hoffmann-La Roche, published 2018):
Like-named read-outs stand apart in the source and are kept apart here.

How the values were obtained:
[1] = target: T1, human TPBG (trophoblast glycoprotein), full length, cell surface expressed (human, UniProt Q13641 32-420)
T1 sequence: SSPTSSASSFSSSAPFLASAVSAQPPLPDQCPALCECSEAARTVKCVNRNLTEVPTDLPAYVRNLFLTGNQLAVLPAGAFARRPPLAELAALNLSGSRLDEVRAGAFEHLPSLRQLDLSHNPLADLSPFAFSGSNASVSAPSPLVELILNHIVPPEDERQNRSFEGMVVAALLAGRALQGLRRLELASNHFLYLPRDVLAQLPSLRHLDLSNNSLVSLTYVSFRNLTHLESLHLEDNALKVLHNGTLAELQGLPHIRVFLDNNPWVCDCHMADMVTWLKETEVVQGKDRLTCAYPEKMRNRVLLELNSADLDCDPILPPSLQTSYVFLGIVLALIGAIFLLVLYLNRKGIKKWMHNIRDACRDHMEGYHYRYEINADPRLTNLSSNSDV

[2] = target: T1, human TPBG (trophoblast glycoprotein), …; test: cell-based or functional assay
[3] = target: T1, human TPBG (trophoblast glycoprotein), …; test: cell-based or functional assay; remark: listed apart in the source
[4] = target: T1, human TPBG (trophoblast glycoprotein), …; test: cell-based or functional assay; remark: listed apart in the source
[5] = target: T2, minipig TPBG, full length, cell surface expressed on CHO-K1 cells (minipig); test: cell-based or functional assay
T2 chain: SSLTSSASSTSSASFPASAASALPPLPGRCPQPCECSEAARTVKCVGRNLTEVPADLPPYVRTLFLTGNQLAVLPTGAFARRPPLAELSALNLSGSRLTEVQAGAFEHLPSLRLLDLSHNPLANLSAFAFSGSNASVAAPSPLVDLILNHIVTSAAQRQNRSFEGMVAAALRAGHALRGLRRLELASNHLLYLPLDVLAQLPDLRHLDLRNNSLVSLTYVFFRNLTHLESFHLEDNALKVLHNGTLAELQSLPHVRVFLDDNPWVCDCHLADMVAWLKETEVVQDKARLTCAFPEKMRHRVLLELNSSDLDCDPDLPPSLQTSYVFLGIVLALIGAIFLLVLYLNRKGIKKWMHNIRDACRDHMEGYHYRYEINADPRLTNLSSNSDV

[6] = target: T1, human TPBG (trophoblast glycoprotein), …; test: cell-based or functional assay; remark: listed apart in the source
[7] = target: T1, human TPBG (trophoblast glycoprotein), …; test: cell-based or functional assay; remark: listed apart in the source
[8] = target: T1, human TPBG (trophoblast glycoprotein), …; test: cell ELISA on MCF7 cells; titrated from 5 µg/ml
[9] = target: T3, huTPBG (recombinant human TPBG immobilised on the Biacore chip) (human, UniProt Q13641 32-355, limits assumed); test: SPR Biacore T200; huTPBG amine-coupled, Fab injected
T3 construct: also called human TPBG antigen
T3 sequence: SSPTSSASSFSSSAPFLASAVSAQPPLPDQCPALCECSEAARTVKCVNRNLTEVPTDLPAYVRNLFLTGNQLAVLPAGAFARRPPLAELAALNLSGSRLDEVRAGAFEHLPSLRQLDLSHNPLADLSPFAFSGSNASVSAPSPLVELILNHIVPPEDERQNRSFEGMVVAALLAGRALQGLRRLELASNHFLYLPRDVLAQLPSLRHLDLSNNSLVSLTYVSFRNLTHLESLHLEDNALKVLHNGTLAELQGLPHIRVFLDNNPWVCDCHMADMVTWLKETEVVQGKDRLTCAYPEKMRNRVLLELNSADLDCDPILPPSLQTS

[10] = target: T1, human TPBG (trophoblast glycoprotein), …; test: flow cytometry on SW620 clone 4 cells; ratio of MFI; replicate 1
[11] = target: T1, human TPBG (trophoblast glycoprotein), …; test: flow cytometry on SW620 clone 4 cells; ratio of MFI; replicate 2
[12] = target: T4, recombinant extracellular domain of minipig TPBG (Biacore analyte) (minipig); test: SPR Biacore T200; Fab captured by anti-huFab, minipig TPBG injected
T4 chain: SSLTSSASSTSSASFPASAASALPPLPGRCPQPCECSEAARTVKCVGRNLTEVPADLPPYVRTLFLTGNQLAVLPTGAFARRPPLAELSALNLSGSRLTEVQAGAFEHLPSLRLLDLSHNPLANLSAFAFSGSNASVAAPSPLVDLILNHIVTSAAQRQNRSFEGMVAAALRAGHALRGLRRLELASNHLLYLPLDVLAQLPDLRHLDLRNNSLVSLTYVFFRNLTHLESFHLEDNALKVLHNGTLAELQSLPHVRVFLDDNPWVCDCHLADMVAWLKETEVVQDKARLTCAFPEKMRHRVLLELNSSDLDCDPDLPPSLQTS

[13] = target: T5, human TPBG extracellular domain, His6Avi, biotinylated (human, biotinylated); test: ELISA; biotinylated TPBG-AviHis on streptavidin plate; Fab titrated from 2 µg/ml
T5 construct: also called huTPBG; human TPBG-AviHis
T5 chain: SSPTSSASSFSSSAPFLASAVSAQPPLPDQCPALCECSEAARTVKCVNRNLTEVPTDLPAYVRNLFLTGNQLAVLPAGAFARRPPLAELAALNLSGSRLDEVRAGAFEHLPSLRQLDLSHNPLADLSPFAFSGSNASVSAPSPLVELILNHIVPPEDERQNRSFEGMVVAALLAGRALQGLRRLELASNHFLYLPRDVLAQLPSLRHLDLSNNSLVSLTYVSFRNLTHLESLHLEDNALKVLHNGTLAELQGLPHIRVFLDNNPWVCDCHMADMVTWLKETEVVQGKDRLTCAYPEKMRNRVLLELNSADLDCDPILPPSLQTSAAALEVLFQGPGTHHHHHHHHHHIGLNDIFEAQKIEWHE

[14] = target: T6, minipig TPBG extracellular domain, His6Avi, biotinylated (minipig, biotinylated); test: as above
T6 construct: also called mpTPBG; minipig TPBG-AviHis
T6 chain: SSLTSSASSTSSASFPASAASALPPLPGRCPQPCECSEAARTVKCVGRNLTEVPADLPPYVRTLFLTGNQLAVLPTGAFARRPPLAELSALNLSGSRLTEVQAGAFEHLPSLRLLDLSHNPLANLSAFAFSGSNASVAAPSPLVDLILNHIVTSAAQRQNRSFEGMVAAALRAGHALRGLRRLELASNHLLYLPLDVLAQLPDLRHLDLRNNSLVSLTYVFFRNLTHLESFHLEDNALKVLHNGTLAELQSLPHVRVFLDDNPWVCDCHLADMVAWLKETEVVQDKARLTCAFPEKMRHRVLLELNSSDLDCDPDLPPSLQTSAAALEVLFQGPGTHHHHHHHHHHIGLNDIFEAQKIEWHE

B1: 091 Fab coupled to PE24 (LR8M) via sortase coupling (Fab)
heavy: EVHLLESGGGLVHPGGSLRLSCAASGFTFRSDAMHWVRQAPGKGLEWVSGVSGSGGSPYYADSVKGRFTISRDDSKTTLYLQMNSLRAEDTAVYYCATGGSIAGSYYYYPMDVWGQGTTVTVSSASTKGPSVFPLAPSSKSTSGGTAALGCLVKDYFPEPVTVSWNSGALTSGVHTFPAVLQSSGLYSLSSVVTVPSSSLGTQTYICNVNHKPSNTKVDKKVEPKSCGGGSLPETGGGRHRQPRGWEQLYPTGAEFLGDGGAVSFSTRGTQNWTVERLLQAHRQLEEGGYVFVGYHGTFLEAAQSIVFGGVRARSQDLDAIWAGFYIAGDPALAYGYAQDQEPDAAGRIRNGALLRVYVPRSSLPGFYATSLTLAAPEAAGEVERLIGHPLPLRLDAITGPEESGGRLETILGWPLAERTVVIPSAIPTDPRNVGGDLDPSSIPDSEAAISALPDYASQPGKPPREDL
light: not shown
**Q.** Which EC50 [1] does the source give for B1 here?
**A.** 0.61 nM

**Q.** What about the “EC50 cytotoxicity, sortase-coupled Fab-PE, MCF7” value [2] of the same binder?
**A.** 0.033 nM

**Q.** And the “X-fold higher potency compared to TPBG(H8)PE, MCF7” value [2]?
**A.** 1.8 fold

B2: 097 Fab coupled to PE24 (LR8M) via sortase coupling (Fab)
heavy: EVQLLESGGGLAQPGGSLRLSCAASGFTFNNDAMTWVRQAPGKGLEWVSAISGSGGSTYYADSVKGRFTISRDNSKNTLYLQMNSLRAEDTAVYYCAKGGSWGDWYYYFYPMDVWGQGTTVTVSSASTKGPSVFPLAPSSKSTSGGTAALGCLVKDYFPEPVTVSWNSGALTSGVHTFPAVLQSSGLYSLSSVVTVPSSSLGTQTYICNVNHKPSNTKVDKKVEPKSCGGGSLPETGGGRHRQPRGWEQLYPTGAEFLGDGGAVSFSTRGTQNWTVERLLQAHRQLEEGGYVFVGYHGTFLEAAQSIVFGGVRARSQDLDAIWAGFYIAGDPALAYGYAQDQEPDAAGRIRNGALLRVYVPRSSLPGFYATSLTLAAPEAAGEVERLIGHPLPLRLDAITGPEESGGRLETILGWPLAERTVVIPSAIPTDPRNVGGDLDPSSIPDSEAAISALPDYASQPGKPPREDL
light: not shown
**Q.** With B2 as the binder, how does the EC50 [1] read?
**A.** 0.63 nM

**Q.** And the “EC50 cytotoxicity, sortase-coupled Fab-PE, MCF7” value [2]?
**A.** 0.054 nM

**Q.** What about the “X-fold higher potency compared to TPBG(H8)PE, MCF7” value [2] of the same binder?
**A.** 1.1 fold

B3: H8 Fab coupled to PE24 (LR8M) via sortase coupling (Fab, V domains shown)
VH: EVQLQQSGPDLVKPGASVKISCKASGYSFTGYYMHWVKQSHGKSLEWIGRINPNNGVTLYNQKFKDKAILTVDKSSTTAYMELRSLTSEDSAVYYCARSTMITNYVMDYWGQVTSVTVSS
VL: SIVMTQTPTFLLVSAGDRVTITCKASQSVSNDVAWYQQKPGQSPTLLISYTSSRYAGVPDRFIGSGYGTDFTFTISTLQAEDLAVYFCQQDYNSPPTFGGGTKLEIKR
**Q.** B3 was tested. Which EC50 [1] did it give?
**A.** 1.56 nM

**Q.** What about the “EC50 cytotoxicity, sortase-coupled Fab-PE, MCF7” value [2] of the same binder?
**A.** 0.059 nM

B4: 051 Fab coupled to PE24 (LR8M) via sortase coupling (Fab)
heavy: EVQLLESGGGLLQPGGSLRLSCAASGFTFSIYWMTWVRQAPGKGLEWVSAISGSGGSTYYADSVKGRFTISRDNSKNTLYLQMNSLRAEDTAVYYCAKDYYSNVYWGQGTLVTVSSASTKGPSVFPLAPSSKSTSGGTAALGCLVKDYFPEPVTVSWNSGALTSGVHTFPAVLQSSGLYSLSSVVTVPSSSLGTQTYICNVNHKPSNTKVDKKVEPKSCGGGSLPETGGGRHRQPRGWEQLYPTGAEFLGDGGAVSFSTRGTQNWTVERLLQAHRQLEEGGYVFVGYHGTFLEAAQSIVFGGVRARSQDLDAIWAGFYIAGDPALAYGYAQDQEPDAAGRIRNGALLRVYVPRSSLPGFYATSLTLAAPEAAGEVERLIGHPLPLRLDAITGPEESGGRLETILGWPLAERTVVIPSAIPTDPRNVGGDLDPSSIPDSEAAISALPDYASQPGKPPREDL
light: DIQMTQSPSSVSASVGDRVTITCRASQGIYSWLAWYQQKPGKAPKLLIYAASSLQSGVPSRFSGSGSGTDFTLTISSLQPEDFATYYCQQSDSPPYTFGQGTKLEIKRTVAAPSVFIFPPSDEQLKSGTASVVCLLNNFYPREAKVQWKVDNALQSGNSQESVTEQDSKDSTYSLSSTLTLSKADYEKHKVYACEVTHQGLSSPVTKSFNRGEC
**Q.** How did the EC50 [1] turn out when B4 was run?
**A.** 0.67 nM

**Q.** What about the “EC50 cytotoxicity, sortase-coupled Fab-PE, MCF7” value [2] of the same binder?
**A.** 0.036 nM

**Q.** What about the “X-fold higher potency compared to TPBG(H8)PE, MCF7” value [2] of the same binder?
**A.** 1.7 fold

B5: anti-TPBG antibody 097, Fab fragment (Fab, V domains shown)
VH: EVQLLESGGGLAQPGGSLRLSCAASGFTFNNDAMTWVRQAPGKGLEWVSAISGSGGSTYYADSVKGRFTISRDNSKNTLYLQMNSLRAEDTAVYYCAKGGSWGDWYYYFYPMDVWGQGTTVTVSS
VL: not shown
notes: also called Fab4
**Q.** What does the source list for B5?
**A.** internalization after 0.5 h, MCF7 cells [3]: 28%; internalization after 1.0 h, MCF7 cells [3]: 42%; internalization after 2.0 h, MCF7 cells [3]: 61%; EC50 cytotoxicity, Fab + anti-kappa-Fab-PE, CHO-K1/human TPBG, replicate 1 [4]: 0.3 nM; EC50 cytotoxicity, Fab + anti-kappa-Fab-PE, CHO-K1/human TPBG, replicate 2 [4]: 0.33 nM; EC50 cytotoxicity, Fab + anti-kappa-Fab-PE, CHO-K1/minipig TPBG, replicate 1 [5]: 2.08 nM; EC50 cytotoxicity, Fab + anti-kappa-Fab-PE, CHO-K1/minipig TPBG, replicate 2 [5]: 2.15 nM; EC50 cytotoxicity, Fab-PE sandwich construct, MCF7 [6]: 0.935 nM; X-fold higher potency compared to TPBG(H8)PE, MCF7, first experiment [6]: 1.3 fold; X-fold higher potency compared to TPBG(H8)PE, MCF7, second experiment [6]: 2.4 fold; EC50 cytotoxicity, Fab-PE sandwich construct, H1975, replicate 1 [7]: 0.826 nM; EC50 cytotoxicity, Fab-PE sandwich construct, H1975, replicate 2 [7]: 0.656 nM; EC50 cytotoxicity, Fab-PE sandwich construct, H1975, replicate 3 [7]: 0.706 nM; EC50 [8]: 0.451 µg/mL; Kd [9]: 0.82 nM; koff [9]: 0.000814 s⁻¹; kon [9]: 993000 M⁻¹ s⁻¹; Fold change pH 7.2 vs pH 5.5 [10]: 1.2 fold; Fold change pH 7.2 vs pH 5.5 [11]: 1.2 fold; Kd [12]: 1.35 nM; koff [12]: 0.000254 s⁻¹; kon [12]: 189000 M⁻¹ s⁻¹; EC50 [13]: 0.0152 µg/mL; EC50 [14]: 0.0436 µg/mL
